Test results as given in patent US20260116991A1.
“And” between values parts separate entries of the source, which are not always exact repeats. Identical values can stand only once.

Key:
[1] = target: murine GPC3-His protein (Sino Biological, Cat. No. 50989-M08B) (murine) (UniProt Q8CFZ4); experiment: ELISA, coated murine GPC3-His
[2] = target: human GPC3-His protein (Acro, Cat. No. GP3-H52H4) (human) (UniProt P51654); experiment: ELISA, coated human GPC3-His
[3] = target: monkey GPC3-His protein (Acro, Cat. No. GP3-C5225) (monkey); experiment: ELISA, coated monkey GPC3-His
[4] = target: human GPC3 expressed on CHO-K1 recombinant cells (human) (UniProt P51654); experiment: FACS on CHO-K1 clone CHOK1-hGPC3.1C3
[5] = target: human GPC3 expressed on CHO-K1 recombinant cells (human) (UniProt P51654); experiment: FACS on CHO-K1 clone CHOK1-hGPC3.2B5
[6] = target: human GPC3 expressed on CHO-K1 recombinant cells (human) (UniProt P51654); experiment: FACS on CHO-K1 clone CHOK1-hGPC3.3E9
[7] = target: GPC3 expressed endogenously on HepG2 cells (UniProt P51654); experiment: FACS on HepG2 cells, control in the row of Y035
[8] = target: GPC3 expressed endogenously on HepG2 cells (UniProt P51654); experiment: FACS on HepG2 cells, control in the row of T2-23
[9] = target: GPC3 on HepG2 cells (human) (UniProt P51654); experiment: FACS on HepG2 cells
[10] = target: GPC3 endogenously expressed on HepG2 cells (UniProt P51654); experiment: FACS on HepG2 cells
[11] = target: human GPC3-His protein (human) (UniProt P51654); experiment: ELISA, coated human GPC3, antibody 1 nM
[12] = target: human GPC3-His protein (human) (UniProt P51654); experiment: ELISA, coated human GPC3, antibody 10 nM
[13] = target: human GPC3-His protein (human) (UniProt P51654); experiment: ELISA, coated human GPC3, antibody 0.1 nM
[14] = target: human GPC3-His protein (human) (UniProt P51654); experiment: ELISA, coated human GPC3, antibody 100 nM
[15] = target: human GPC3-His protein (human) (UniProt P51654); experiment: ELISA, coated human GPC3, antibody 0.01 nM
[16] = target: human GPC3-His protein (human) (UniProt P51654); experiment: ELISA, coated human GPC3, antibody 0.001 nM
[17] = target: human GPC3-His protein (human) (UniProt P51654); experiment: ELISA, coated human GPC3, antibody 0.0001 nM

Chain of murine GPC3-His protein (Sino Biological, Cat. No. 50989-M08B) (murine) (Q8CFZ4 25-558 limits assumed): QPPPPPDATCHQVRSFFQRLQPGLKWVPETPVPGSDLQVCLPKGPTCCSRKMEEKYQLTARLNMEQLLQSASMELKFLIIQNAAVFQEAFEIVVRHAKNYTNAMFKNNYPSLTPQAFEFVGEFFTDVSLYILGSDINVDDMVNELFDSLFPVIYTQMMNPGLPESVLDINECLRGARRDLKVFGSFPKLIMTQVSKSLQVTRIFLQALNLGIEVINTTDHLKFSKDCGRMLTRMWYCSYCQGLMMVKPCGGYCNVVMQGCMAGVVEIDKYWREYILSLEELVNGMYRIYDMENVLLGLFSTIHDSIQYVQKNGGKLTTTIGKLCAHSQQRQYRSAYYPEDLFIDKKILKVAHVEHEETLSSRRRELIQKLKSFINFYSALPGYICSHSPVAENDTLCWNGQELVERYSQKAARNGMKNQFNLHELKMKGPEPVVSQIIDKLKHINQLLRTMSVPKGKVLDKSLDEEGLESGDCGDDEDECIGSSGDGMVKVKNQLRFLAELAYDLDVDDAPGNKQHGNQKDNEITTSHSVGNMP

In the case of hIgG1 control (antibody), the OD450 at 0.0001 nM antibody [1] is reported as 0.06 OD450 nm, the OD450 at 0.001 nM antibody [1] is reported as 0.05 OD450 nm and the OD450 at 0.01 nM antibody [1] is reported as 0.05 OD450 nm. For the same substance, the OD450 at 0.1 nM antibody [1] was 0.06 OD450 nm, the OD450 at 1 nM antibody [1] was 0.05 OD450 nm and the OD450 at 10 nM antibody [1] was 0.06 OD450 nm. The OD450 at 100 nM antibody [1] was 0.12 OD450 nm.
Substance hIgG1 (antibody) has an OD450 at 0.0001 nM antibody [2] of 0.047 OD450, an OD450 at 0.001 nM antibody [2] of 0.048 OD450 and an OD450 at 0.01 nM antibody [2] of 0.048 OD450. For the same substance, the OD450 at 0.1 nM antibody [2] was 0.05 OD450, the OD450 at 1 nM antibody [2] was 0.048 OD450 and the OD450 at 10 nM antibody [2] was 0.05 OD450. It also gave an OD450 at 100 nM antibody [2] of 0.072 OD450, an OD450 at 0.0001 nM antibody [3] of 0.048 OD450 and an OD450 at 0.001 nM antibody [3] of 0.044 OD450. For the same substance, the OD450 at 0.01 nM antibody [3] was 0.044 OD450, the OD450 at 0.1 nM antibody [3] was 0.045 OD450 and the OD450 at 1 nM antibody [3] was 0.044 OD450. It also gave an OD450 at 10 nM antibody [3] of 0.047 OD450, an OD450 at 100 nM antibody [3] of 0.056 OD450 and an OD450 at 0.0001 nM antibody [1] of 0.049 OD450. It also gave an OD450 at 0.001 nM antibody [1] of 0.051 OD450, an OD450 at 0.01 nM antibody [1] of 0.052 OD450 and an OD450 at 0.1 nM antibody [1] of 0.05 OD450. It also gave an OD450 at 1 nM antibody [1] of 0.05 OD450, an OD450 at 10 nM antibody [1] of 0.055 OD450 and an OD450 at 100 nM antibody [1] of 0.105 OD450. For the same substance, the Mean fluorescence intensity of cells [4] was 19.3 MFI, the Mean fluorescence intensity of cells [5] was 19.3 MFI and the Mean fluorescence intensity of cells [6] was 19.3 MFI. For the same substance, the Mean fluorescence intensity of cells [7] was 137 MFI and the Mean fluorescence intensity of cells [8] was 137 MFI.
With hIgG (antibody) the Max MFI [9] was 58.8.
“hIgG1 (IgG subtype control, human IgG1) (antibody)” was tested, and the Max MFI [10] was 154 MFI and 258 MFI and 110 MFI, the OD450 nm [11] was 0.09 OD450 and the OD450 nm [12] was 0.09 OD450. For the same substance, the OD450 nm [13] was 0.09 OD450, the OD450 nm [14] was 0.11 OD450 and the OD450 nm [15] was 0.09 OD450. For the same substance, the OD450 nm [16] was 0.09 OD450 and the OD450 nm [17] was 0.09 OD450.
